The supplement of paper PMC10126150
± gives the standard deviation of the averaged measurements.

System: ATP
Test: switch fluorescence ratio, 500 uM ATP over buffer (Cy3 cluster intensity, sum of 5 cycles each) (fold (ratio)); higher = stronger signal-on switching upon ATP binding; sequences stand for … in TCGTCGGCAGCGTCAGATGTGTATAAGAGACAGTTTTTTTTTTTTTTTTTTTTTTTTT…TC
Conditions: aptamer strand: ATP DNA aptamer (quencher-CACCTGGGGGAGTATTGCGGAGGAAGG + anchor), 100 nM annealed; ATP concentration: 500 uM
Method in brief: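 Imaging in selection buffer was followed by imaging after 15 min with 500 uM ATP at 22 °C, for Cy3-labelled switching-strand clusters annealed to 100 nM quencher-labelled ATP aptamer on a modified Illumina MiSeq flow-cell. Five of these buffer/ATP cycles ran, separated by NaOH stripping and re-annealing. The fluorescence ratio per cluster is summed target-cycle over summed buffer-cycle Cy3 intensity, averaged per switch-domain sequence; clusters outside 100-1000 RFU were removed.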
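Note: ATP exposure 15 min at 22 °C before imaging.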

Sequence	switch fluorescence ratio
TATTAGGCAT	1.15 ± 0.23
TATTAGGCGC	0.982 ± 0.022
TATTAGGGGA	1.02 ± 0.013
TATTAGTCAG	1 ± 0.023
TATTATCTGC	0.971 ± 0.021
TATTATGACC	1.01 ± 0.043
TATTATGATC	1.03 ± 0.02
TATTATGGCA	1.02 ± 0.08
TATTATTGGT	0.992 ± 0.045
TATTATTTGT	0.994 ± 0.053
TATTATTTTG	1 ± 0.049
TATTCAACGG	1.02 ± 0.028
TATTCAAGTT	1 ± 0.024
TATTCAGGGG	1.03 ± 0.058
TATTCAGTGC	1.01 ± 0.046
TATTCATGTT	0.991 ± 0.029
TATTCCGCC	2.29 ± 0.033
TATTCGGGAG	1.0052 ± 0.00035
TATTCTCATT	0.977 ± 0.023
TATTGACGGG	0.9956 ± 0.0023
TATTGAGCGT	1 ± 0.044
TATTGAGGGG	1 ± 0.038
TATTGATAGC	1.014 ± 0.0083
TATTGCGGCA	1.011 ± 0.0051
TATTGCTTCT	0.9913 ± 0.0021

Sequence	switch fluorescence ratio
TATTGGGCCT	1 ± 0.051
TATTGGGGGA	0.995 ± 0.043
TATTGGGTCG	0.99 ± 0.023
TATTGGTTGT	0.999 ± 0.029
TATTGTCTTT	1.02 ± 0.025
TATTGTGACT	1.021 ± 0.01
TATTGTGGCT	0.9785 ± 0.0061
TATTGTGTAA	1 ± 0.023
TATTGTTCTG	0.9819 ± 0.0025
TATTGTTGTT	0.9949 ± 0.0063
TATTTAAAAG	1.003 ± 0.009
TATTTAAGGG	1.12 ± 0.16
TATTTAATCA	1.008 ± 0.0097
TATTTACAGG	1.033 ± 0.0084
TATTTAGGAC	0.99 ± 0.028
TATTTATATT	1.06 ± 0.029
TATTTATCGG	0.991 ± 0.013
TATTTATGTA	1.01 ± 0.045
TATTTCCTGT	0.993 ± 0.011
TATTTCGTGG	0.985 ± 0.024
TATTTGAAA	1.05 ± 0.059
TATTTGCGCA	1.06 ± 0.099
TATTTGCTTT	1.02 ± 0.015
TATTTGGGGA	0.999 ± 0.024
TATTTGGTCG	1.02 ± 0.047

Sequence	switch fluorescence ratio
TATTTGTATG	0.9919 ± 0.003
TATTTGTGCT	0.982 ± 0.011
TATTTTACCA	1.017 ± 0.0061
TATTTTCCTG	1.15 ± 0.18
TATTTTCGGT	0.986 ± 0.021
TATTTTCTCA	1.05 ± 0.049
TATTTTCTTT	0.982 ± 0.021
TATTTTGGGC	0.997 ± 0.046
TATTTTGGTG	0.984 ± 0.033
TATTTTTATA	0.992 ± 0.017
TATTTTTATC	1.03 ± 0.018
TATTTTTGCC	1.001 ± 0.0031
TCAAAAAGGA	1.01 ± 0.031
TCAAAACGGT	1.34 ± 0.51
TCAAAACTGT	1.07 ± 0.067
TCAAAAGGGA	1.02 ± 0.041
TCAAACTGGT	1.03 ± 0.028
TCAAACTTAT	1.05 ± 0.027
TCAAAGAAC	1.0338 ± 0.00026
TCAAAGGTTC	1.13 ± 0.16
TCAAAGTTGG	1.01 ± 0.022
TCAACCAAAA	1.02 ± 0.011
TCAACGTAGA	1.03 ± 0.014
TCAACGTGCT	1 ± 0.037
TCAACTGGTG	1.35 ± 0.16

Sequence	switch fluorescence ratio
TCAACTTTTT	1.01 ± 0.02
TCAAGACGCA	1.068 ± 0.0035
TCAAGAGGTT	1.001 ± 0.01
TCAAGCCATT	0.989 ± 0.022
TCAAGGAGTT	0.9773 ± 0.0047
TCAAGGCGGA	0.99 ± 0.012
TCAATATTGG	1.008 ± 0.0098
TCAATCCTTG	0.999 ± 0.035
TCAATGCATG	0.983 ± 0.035
TCAATGGTTT	1.12 ± 0.21
TCAATTGGGA	0.983 ± 0.055
TCAATTTGGC	1.02 ± 0.039
TCAATTTGGG	0.971 ± 0.022
TCACAATGCG	1.06 ± 0.064
TCACAGCCG	1.046 ± 0.0085
TCACAGTAAT	1.13 ± 0.063
TCACAGTTAG	0.998 ± 0.046
TCACCAGGTA	2.163 ± 0.021
TCACCATATT	1.05 ± 0.02
TCACGCTTCA	1.12 ± 0.033
TCACGCTTTT	1.11 ± 0.12
TCACGTTCAA	1.06 ± 0.022
TCACGTTTAG	1.03 ± 0.011
TCACTCGAAG	1.01 ± 0.0067
TCAGAATCGT	0.988 ± 0.026

Sequence	switch fluorescence ratio
TCAGAATGCG	0.991 ± 0.045
TCAGAATTCA	1.01 ± 0.012
TCAGACTGTT	1.01 ± 0.013
TCAGAGGCGT	0.9964 ± 0.0056
TCAGAGGGCA	1 ± 0.053
TCAGATTGTT	0.9623 ± 0.0028
TCAGATTTGG	0.9901 ± 0.006
TCAGCGGGGG	1.11 ± 0.16
TCAGCGGTTT	0.96 ± 0.055
TCAGGACGGC	0.99 ± 0.044
TCAGGAGTCG	1.02 ± 0.06
TCAGGCTAAC	1.01 ± 0.011
TCAGGCTAGC	1.07 ± 0.026
TCAGGCTAGG	1.02 ± 0.028
TCAGGCTGTT	0.968 ± 0.04
TCAGGGACGA	1.02 ± 0.055
TCAGGGAGGG	1.06 ± 0.15
TCAGGGAGTG	0.9758 ± 0.0095
TCAGGGCGTG	1 ± 0.026
TCAGGGGAAG	0.999 ± 0.015
TCAGGGGCTG	0.974 ± 0.043
TCAGGGGGCT	1.03 ± 0.088
TCAGGGGGGT	1.11 ± 0.3
TCAGGGGTCG	1.05 ± 0.056
TCAGGGGTGG	1 ± 0.058

Sequence	switch fluorescence ratio
TCAGGGTGAA	1.02 ± 0.041
TCAGGGTTGG	0.978 ± 0.024
TCAGGGTTTT	1.01 ± 0.018
TCAGGTGGGT	1.22 ± 0.22
TCAGTAATTT	1.03 ± 0.032
TCAGTACATG	0.992 ± 0.02
TCAGTCAGCT	1 ± 0.039
TCAGTCCGGA	1.02 ± 0.024
TCAGTGACGT	0.9827 ± 0.0096
TCAGTGCCAG	0.992 ± 0.022
TCAGTTAATT	1.008 ± 0.0099
TCAGTTGGTT	0.977 ± 0.064
TCAGTTGTAT	0.979 ± 0.011
TCAGTTTAGC	1.01 ± 0.016
TCAGTTTGGT	0.99 ± 0.017
TCATAAAGGG	1.03 ± 0.0064
TCATAAGGGA	0.997 ± 0.028
TCATAAGTTG	0.9957 ± 0.0042
TCATACCATT	1 ± 0.024
TCATAGAGTA	1.02 ± 0.018
TCATAGGATT	0.995 ± 0.04
TCATAGGTTT	0.974 ± 0.038
TCATAGTCGG	1 ± 0.024
TCATATGGTG	1.03 ± 0.038
TCATCGTCT	1.01 ± 0.023

Sequence	switch fluorescence ratio
TCATCTTTTT	0.9477 ± 0.0022
TCATGAACTT	1.07 ± 0.078
TCATGATAGT	0.9825 ± 0.0081
TCATGCCAAC	1.03 ± 0.011
TCATGCCGGG	1.04 ± 0.014
TCATGCTGAG	0.98 ± 0.0077
TCATGGAGTA	0.981 ± 0.08
TCATGGATAG	1.006 ± 0.002
TCATGGCGGT	1.01 ± 0.014
TCATGGGGGA	1.03 ± 0.046
TCATGGGGTT	1.006 ± 0.0065
TCATGTATTG	1.01 ± 0.037
TCATTAATTT	0.9873 ± 0.0086
TCATTCAACT	1 ± 0.013
TCATTCAAGT	1.04 ± 0.011
TCATTCCATT	0.988 ± 0.031
TCATTCGCAG	3.73 ± 0.77
TCATTCGTCC	1.099 ± 0.0056
TCATTGGGG	0.974 ± 0.029
TCATTTAAGG	0.987 ± 0.02
TCATTTATTG	1.02 ± 0.024
TCATTTTTTT	0.997 ± 0.036
TCCAACGTAT	1.493 ± 0.0064
TCCAAGGGAT	1.01 ± 0.012
TCCAAGGGGT	1.06 ± 0.044

Sequence	switch fluorescence ratio
TCCAAGTCCC	1.018 ± 0.0088
TCCAATCGGT	0.973 ± 0.019
TCCAATCTCT	1.06 ± 0.02
TCCAATTGGA	0.9855 ± 0.0021
TCCAATTGGG	1.11 ± 0.09
TCCACTCTTC	0.991 ± 0.024
TCCAGACGGC	1 ± 0.013
TCCAGGGCGA	1.16 ± 0.13
TCCAGGGTAA	1.0425 ± 0.00073
TCCAGGTGGG	2.39 ± 0.19
TCCAGGTTAG	1.17 ± 0.03
TCCAGTCAAA	1.01 ± 0.075
TCCAGTTTTT	0.999 ± 0.015
TCCATAAAAA	0.999 ± 0.022
TCCATCTGCG	1.097 ± 0.007
TCCATGTATC	0.984 ± 0.02
TCCATTAGGA	0.9978 ± 0.0082
TCCATTGTGT	0.992 ± 0.029
TCCATTTTGT	1.01 ± 0.05
TCCATTTTTT	0.992 ± 0.035
TCCCAAAATG	1.01 ± 0.039
TCCCACGGCC	1.083 ± 0.0017
TCCCATTTGG	1.03 ± 0.072
TCCCATTTTT	1.01 ± 0.038
TCCCCGTCGA	1.88 ± 1.2
